This series is described as follows: protein stability index of a GFP-peptide fusion (GPS, HEK-293T) (PSI 1-6); higher = more stable. As to conditions: c terminus: a fixed tail appended.

± gives the standard deviation.
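Also: 24-mer peptide tiles fused after GFP, lentivirally expressed, FACS-sorted into six equal bins by GFP/DsRed ratio, decoded by Illumina sequencing, PSI is the read-weighted mean bin number.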

In turn, GDQDPLSKIPFKILSGHEHAVSTC [WDR88] yielded a protein stability index (treatment: DMSO) of 3.31 ± 0.23 and a protein stability index (treatment: MLN4924 1 uM, 8 h) of 3.78 ± 0.16. As to GDVMHLSQSPSVSQLSVLSLSGVM [PRAME], the protein stability index was determined as 2.43 ± 0.42 (treatment: DMSO) and 2.28 ± 0.31 (treatment: MLN4924 1 uM, 8 h). Take GDWLLTANGSEIHKHVHFSSSFTS [SLC22A15]: the protein stability index is, setting by setting: (treatment: DMSO) 2.59 ± 0.25; (treatment: MLN4924 1 uM, 8 h) 2.49 ± 0.36. Take GEEDFSLSATIGSILRELDTSMDG [SERTAD3]: the protein stability index turned out to be 3.75 ± 0.2 (treatment: DMSO) and 3.93 ± 0.44 (treatment: MLN4924 1 uM, 8 h).

GERPYKCSECGESFSRSSRLMSHQ [ZNF263] displayed a protein stability index (treatment: DMSO) of 3.25 ± 0.51 and a protein stability index (treatment: MLN4924 1 uM, 8 h) of 3.53 ± 0.83.

The sequence GEYVVTAKAEGFTASTKNCMVGYD [CPXM2] came in with a protein stability index (treatment: DMSO) of 4.26 ± 0.28 and a protein stability index (treatment: MLN4924 1 uM, 8 h) of 3.65 ± 0.054. The corresponding values for GFDTDGLSSAVWPGGETEALTRLE [CRY1] are 4.54 ± 0.73 and 4.76 ± 0.29. The corresponding values for GFWEEERPFWEEEKTFWKEEKSFW [CCDC70] are 2.85 ± 0.35 and 3.274 ± 0.027.

With GGDGSGCSKQSGSFRKFRYGYNNV [ADAMTS4], the protein stability index is, setting by setting: (treatment: DMSO) 3.59 ± 0.3; (treatment: MLN4924 1 uM, 8 h) 3.389 ± 0.008.

The sequence GGFQMHYEKTPFDQLAFIEELFSL [EID1] registered a protein stability index (treatment: DMSO) of 2.12 ± 0.9.

In the case of GGGGCDRYEPLPPSLPAAGEQDCC [KCNA3], the protein stability index (treatment: DMSO) is 5.02 ± 0.33 and the protein stability index (treatment: MLN4924 1 uM, 8 h) was 5.06 ± 0.29. The corresponding values for GGHSRERADEPQWSLYPSDSQVSE [CHGB] are 5.28 ± 0.27 and 5.24 ± 0.34. Take GGLSPVTNLTVTMDQLQGLGSDYE [CDC25A]: the protein stability index (treatment: DMSO) stood at 4.24 ± 0.38 and the protein stability index (treatment: MLN4924 1 uM, 8 h) was found to be 4.48 ± 0.18. The matching figures for GGMSHLHTFRATFQEPLYPALRLW [TRIM14]: 2.21 ± 0.22 and 2.13 ± 0.091. The corresponding values for GHGMTPLKVAAESCKADVVELLLS [FEM1B] are 2.29 ± 0.21 and 2.47 ± 0.34. With GHHERSIMTDLYYLSQTDGAGDWR [FUT8], the protein stability index reads like this: (treatment: DMSO) 3.2 ± 0.35; (treatment: MLN4924 1 uM, 8 h) 3.12 ± 0.24. With GHKEEEDGEGAGPGEQGGGKLVLS [ESRRA], the protein stability index runs as follows: (treatment: DMSO) 5.3 ± 0.27; (treatment: MLN4924 1 uM, 8 h) 5.42 ± 0.4. For the sequence GHPYRGASQFLASASSSTTCCEST [IRX6], the protein stability index was 4.24 ± 0.19 (treatment: DMSO) and 4.3 ± 0.22 (treatment: MLN4924 1 uM, 8 h). The matching figures for GIKSKEAEEYRLKEHYLTFEKSRY [PSD2]: 3.82 ± 0.093 and 3.94 ± 0.31. For the setting “treatment: MLN4924 1 uM, 8 h”, GIVEAMVVCRQLGLGFASNAFQET [LOXL2] returned a protein stability index of 2.393 ± 0.002. For the sequence GKLKWNLAAVTPHDFIEHILRKLP [CCND2], the protein stability index by setting is: (treatment: DMSO) 2.61 ± 0.38; (treatment: MLN4924 1 uM, 8 h) 2.16 ± 0.18. Turning to GKSLLLMTRNDVLTGLQLKLGPAL [SAMD13], the protein stability index by setting is: (treatment: DMSO) 2.27 ± 0.4; (treatment: MLN4924 1 uM, 8 h) 2.26 ± 0.28.

For the sequence GLPGAEGVEPAPWAQLEAPARLLL [FANCE], the protein stability index came out at 3.33 ± 0.45 (treatment: DMSO) and 3.3 ± 0.05 (treatment: MLN4924 1 uM, 8 h). Take GLSGGALSPLRAASDPLLSSVSPA [TFE3]: the protein stability index is, setting by setting: (treatment: DMSO) 3.91 ± 0.32; (treatment: MLN4924 1 uM, 8 h) 3.91 ± 0.099. The sequence GLTKKRTKVQKKSLLLKKPLRVDL [NOP53] registered a protein stability index (treatment: DMSO) of 3.25 ± 0.13 and a protein stability index (treatment: MLN4924 1 uM, 8 h) of 3.42 ± 0.35. The matching figures for GMPPAGTGMPMMPQQPVMFAQPMM [SNAP91]: 3.03 ± 0.17 and 3.2 ± 0.34. The matching figures for GNNLLVFGGTGIPFGESNGNGVHV [KLHDC10]: 2.66 ± 0.36 and 2.71 ± 0.41.

For GPPSRGGHMDDGGYSMNFNMSSSR [RBMX], the protein stability index by setting is: (treatment: DMSO) 4.25 ± 0.32; (treatment: MLN4924 1 uM, 8 h) 3.96 ± 0.34. The matching figures for GQGPKPEADSQEQGHPQTGCECED [GAGE1]: 5.64 ± 0.15 and 5.4 ± 0.31. Turning to GQPLRPLVPDASKQRLMENTEDWR [PDLIM7], the protein stability index is, setting by setting: (treatment: DMSO) 4.54 ± 0.24; (treatment: MLN4924 1 uM, 8 h) 4.72 ± 0.18. With GQTPLAVSISISGSSRPCLDFLQE [ASB7], the protein stability index came out at 2.83 ± 0.93 (treatment: DMSO) and 2.24 ± 0.37 (treatment: MLN4924 1 uM, 8 h). As for GQYATTKGISQTNLITTVTPEKKA [EPB41L3], the protein stability index by setting is: (treatment: DMSO) 5.07 ± 0.2; (treatment: MLN4924 1 uM, 8 h) 5.11 ± 0.17. The matching figures for GRCELARVLHDFGLDGYRGYSLAD [SPACA3]: 2.62 ± 0.13 and 2.35 ± 0.32. The matching figures for GREKPGPLDFEAYSAAALQEAMKR [FCHO1]: 4.21 ± 0.27 and 4.26 ± 0.18. On to GRESYIPGICVARVYHGWLFEGLG [SLA], for which the protein stability index (treatment: MLN4924 1 uM, 8 h) was found to be 1.8 ± 0.88. Regarding GRFEQLGKTAASWCLHVNNWLQVS [FSD1], the protein stability index stood at 2.29 ± 0.37 (treatment: DMSO) and 1.96 ± 0.2 (treatment: MLN4924 1 uM, 8 h).

For GRPIKPPKKDLEDGEVPQHAGKKG [BRD3], the protein stability index (treatment: DMSO) is 5.41 ± 0.37 and the protein stability index (treatment: MLN4924 1 uM, 8 h) was determined as 5.55 ± 0.061.

The values above are taken from the supplement of paper PMC10567573.
